From article PMC8533776 come the findings set out here.

The assay addresses enhanced green fluorescent protein (EGFP) [GFP: P42212]. Briefly: ELISA; EGFP coated at 100 ng/well in PBS overnight at 4 °C, blocked with 3% BSA; threefold serial dilutions of the binders, 37 °C for 1.5 h; detection by HRP-conjugated anti-Flag antibody, ABTS, OD405.

For orientation: EC50 means the concentration that produces a half-maximal response. Regarding αEGFP TRIMbody (RBCC-LaG16-LaG2), the EC50 was 630 pM.
